Assay results reported in patent US20210309735A1 (published 2021).

What was measured:
[1] = target: T1, mouse IL-17A (mouse, UniProt Q62386 26-158, limits assumed); experiment: ELISA, mouse IL-17A coated
T1 sequence (looked up): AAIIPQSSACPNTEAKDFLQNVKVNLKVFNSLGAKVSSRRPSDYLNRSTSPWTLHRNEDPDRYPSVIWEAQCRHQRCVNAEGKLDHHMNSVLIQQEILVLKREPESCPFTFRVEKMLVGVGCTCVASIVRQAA

[2] = target: T2, human IL-17A (human, UniProt Q16552 20-155, limits assumed); experiment: blocking ELISA, IL-17RA coated; antibody 1 ug/ml pre-mixed with human IL-17A 0.1 ug/ml; bound IL-17A detected
T2 construct: Bought from R&D Systems; also called IL-17 antigen (human IL17A)
T2 sequence (looked up): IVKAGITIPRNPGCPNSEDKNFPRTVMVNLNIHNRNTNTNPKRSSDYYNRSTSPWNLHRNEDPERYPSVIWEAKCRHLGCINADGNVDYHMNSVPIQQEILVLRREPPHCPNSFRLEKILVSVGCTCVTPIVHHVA
Description: (§1) Recombinant human IL-17RA or recombinant human IL-17RC (1 μg/ml) were coated on the plate, overnight at 4° C. in the dark and then blocked with 2% BSA for 1 hour at room temperature to reduce non-specific binding. The antibodies PP10759-PP10768 (1 μg/ml) pre-mixed with human IL-17A (0.1 μg/ml final concentration) were added to the ELISA wells for 1 hour at room temperature. The plate was washed with PBS for three times, and then incubated with anti-IL17A polyclonal Ab-biotin (R&D Systems) for 1 hour followed by SAV-HRP. The plate was washed for three times with PBS. TMB, the HRP substrate, was added to each well for color development for 5 minutes at room temperature. Equal amount of 0.1N HCl stop solution was added to each well to terminate the reaction. Raw OD₄₅₀ data was collected by POLARstar Omega from BMG Labtech.
(§2) It can be seen that the antibodies PP10759-PP10768 can effectively block the interaction between IL-17A and IL-17RA as well as IL-17A and IL-17RC.

[3] = target: T2, human IL-17A; experiment: blocking ELISA, IL-17RC coated; antibody 1 ug/ml pre-mixed with human IL-17A 0.1 ug/ml; bound IL-17A detected
Description: as §1, §2

[4] = target: T2, human IL-17A; experiment: BLI (Octet Red96), antibody captured on AHC biosensor, human IL-17A in solution, 1:1 model, 25 C
Description: Using the Octet method (Fortebio Octet®), the chimeric parental antibody and the […] (i.e. PP10759-PP10768) were evaluated with Octet Red96 at 25° C. These antibodies were captured on anti-Human Fc (AHC) biosensors at a concentration of 10 μg/mL. Loaded biosensors were then dipped into a dilution of antigen (human IL-17A (R&D Systems), 500 nM start, 1:3 down, 7 points). Kinetic constants were calculated using a monovalent (1:1) model. In FIG. 2A, Figure I, II, III and IV show the results of PP10759, PP10760, PP10761 and PP10762, respectively. In FIG. 2B, Figure I, II, III and IV show the results of PP10763, PP10764, PP10765 and PP10766, respectively. In FIG. 2B, Figure I and II show the results of PP10767 and PP10768, respectively. It can be seen that the antibodies (i.e. PP10759-PP10768) bind to IL-17A with high affinity. […] Secukinuma is a human IgG1κ monoclonal antibody that binds to IL-17A made by Novartis.

[5] = target: T2, human IL-17A; experiment: ELISA, human IL-17A coated at 1 ug/mL, anti-human IgG-HRP detection
Description: ELISA plates were coated with 1 μg/mL IL-17 antigen (human IL17A) (R&D Systems) and incubated at 4° C. in the dark overnight. Then it was washed once with 10 mM, pH 7.4 PBS/Tween (0.05%), blocked with PBST containing 2% BSA for 1 hour and incubated at room temperature for 1 h. The antibodies PP10759-PP10768 were diluted in 5-fold increments for a total of eleven data points and were added to the ELISA wells and incubated at room temperature for 1 hour. The plate was washed with PBS for three times, and then incubated with HRP conjugated goat anti-human IgG antibody for 1 hour. The plate was washed three times with PBS. TMB, the HRP substrate, was added to each well for color development for 5 minutes at room temperature. Equal amount of 0.1N HCl stop solution was added to each well to terminate the reaction. Raw OD₄₅₀ data was collected by POLARstar Omega (BMG Labtech). Besides, hFc isotope was regarded as control. It can be seen that the antibodies (i.e. PP10759-PP10768) bind to human IL-17A with high affinity.

| Binder | binding result [1] | Blocking % [2] | OD450 [2] | Blocking % [3] | OD450 [3] | Kd [4] | koff [4] | kon [4] | EC50 [5] |
| --- | --- | --- | --- | --- | --- | --- | --- | --- | --- |
| PP10761 (antibody, human IgG4 S228P, kappa, V domains shown, Humanized, human IgG4/kappa; also called VH6665/VL6666) VH: EVQLVESGGGLVQPGGSLRLSCAASGFTFSTYGMSWVRQAPGKGLELVSIINHNGGSTFYPDSVKGRFTISRDNSKNTLYLQMNSLRAEDTAVYYCARDPRHDGYFFDYWGQGTLVTVSS VL: DIQMTQSPSSLSASVGDRVTITCQASEDIYDRLAWYQQKPGKAPKLLISGATSLETGVPSRFSGSGSGKDYTFTISSLQPEDIATYYCQQYWSVPWTFGGGTKVEIKR | no binding | 99.7% | 0.0851 OD450 | 99.8% | 0.0688 OD450 | < 1 pM | < 1e-07 s⁻¹ | 400000 M⁻¹ s⁻¹ | 8.72 ng/mL |
| PP10766 (antibody, human IgG4 S228P, kappa, V domains shown, Humanized, human IgG4/kappa; also called VH6667/VL6665) VH: EVQLVESGGGVVQPGRSLRLSCAASGFTFSTYGMSWVRQAPGKGLELVAIINHNGGSTFYPDSVKGRFTISRDNSKNTLYLQMNSLRAEDTAVYYCARDPRHDGYFFDYWGQGTLVTVSS VL: DIQMTQSPSSLSASVGDRVTITCQASEDIYDRLAWYQQKPGKAPKLLISGATSLETGVPSRFSGSGSGTDYTFTISSLQPEDIATYYCQQYWSVPWTFGGGTKVEIKR | no binding | 94.9% | 0.147 OD450 | 100% | 0.0682 OD450 | < 1 pM | < 1e-07 s⁻¹ | 350000 M⁻¹ s⁻¹ | 7.35 ng/mL |
| PP10760 (antibody, human IgG4 S228P, kappa, V domains shown, Humanized, human IgG4/kappa; also called VH6665/VL6665) VH: EVQLVESGGGLVQPGGSLRLSCAASGFTFSTYGMSWVRQAPGKGLELVSIINHNGGSTFYPDSVKGRFTISRDNSKNTLYLQMNSLRAEDTAVYYCARDPRHDGYFFDYWGQGTLVTVSS VL: DIQMTQSPSSLSASVGDRVTITCQASEDIYDRLAWYQQKPGKAPKLLISGATSLETGVPSRFSGSGSGTDYTFTISSLQPEDIATYYCQQYWSVPWTFGGGTKVEIKR | no binding | 97.8% | 0.109 OD450 | 98% | 0.0762 OD450 | 310 pM | 0.00015 s⁻¹ | 490000 M⁻¹ s⁻¹ | 9.44 ng/mL |
| PP10765 (antibody, human IgG4 S228P, kappa, V domains shown, Humanized, human IgG4/kappa; also called VH6666/VL6667) VH: EVQLVESGGGLVQPGGSLRLSCAASGFTFSTYGMSWVRQAPGKGLELVAIINHNGGSTFYPDSVKGRFTVSRDNSKNTLYLQMNSLRAEDTAVYYCARDPRHDGYFFDYWGQGTLVTVSS VL: DIQMTQSPSSLSASVGDRVTITCRASEDIYDRLAWYQQKPGKAPNLLVSGATSLESGVPSRFSGSGSGKDYTLTISSLQPEDFATYYCQQYWSVPWTFGGGTKVEIKR | no binding | 89.9% | 0.213 OD450 | 95.2% | 0.088 OD450 | 130 pM | 6.6e-05 s⁻¹ | 500000 M⁻¹ s⁻¹ | 7.61 ng/mL |
| PP10762 (antibody, human IgG4 S228P, kappa, V domains shown, Humanized, human IgG4/kappa; also called VH6665/VL6667) VH: EVQLVESGGGLVQPGGSLRLSCAASGFTFSTYGMSWVRQAPGKGLELVSIINHNGGSTFYPDSVKGRFTISRDNSKNTLYLQMNSLRAEDTAVYYCARDPRHDGYFFDYWGQGTLVTVSS VL: DIQMTQSPSSLSASVGDRVTITCRASEDIYDRLAWYQQKPGKAPNLLVSGATSLESGVPSRFSGSGSGKDYTLTISSLQPEDFATYYCQQYWSVPWTFGGGTKVEIKR | no binding | 99.6% | 0.0846 OD450 | 99.5% | 0.0701 OD450 | < 1 pM | < 1e-07 s⁻¹ | 440000 M⁻¹ s⁻¹ | 8.26 ng/mL |
| PP10763 (antibody, human IgG4 S228P, kappa, V domains shown, Humanized, human IgG4/kappa; also called VH6666/VL6665) VH: EVQLVESGGGLVQPGGSLRLSCAASGFTFSTYGMSWVRQAPGKGLELVAIINHNGGSTFYPDSVKGRFTVSRDNSKNTLYLQMNSLRAEDTAVYYCARDPRHDGYFFDYWGQGTLVTVSS VL: DIQMTQSPSSLSASVGDRVTITCQASEDIYDRLAWYQQKPGKAPKLLISGATSLETGVPSRFSGSGSGTDYTFTISSLQPEDIATYYCQQYWSVPWTFGGGTKVEIKR | no binding | 90.9% | 0.104 OD450 | 98.9% | 0.0721 OD450 | 360 pM | 0.00016 s⁻¹ | 460000 M⁻¹ s⁻¹ | 7.28 ng/mL |
| PP10764 (antibody, human IgG4 S228P, kappa, V domains shown, Humanized, human IgG4/kappa; also called VH6666/VL6666) VH: EVQLVESGGGLVQPGGSLRLSCAASGFTFSTYGMSWVRQAPGKGLELVAIINHNGGSTFYPDSVKGRFTVSRDNSKNTLYLQMNSLRAEDTAVYYCARDPRHDGYFFDYWGQGTLVTVSS VL: DIQMTQSPSSLSASVGDRVTITCQASEDIYDRLAWYQQKPGKAPKLLISGATSLETGVPSRFSGSGSGKDYTFTISSLQPEDIATYYCQQYWSVPWTFGGGTKVEIKR | no binding | 96.5% | 0.126 OD450 | 98.9% | 0.0725 OD450 | < 1 pM | < 1e-07 s⁻¹ | 450000 M⁻¹ s⁻¹ | 6.61 ng/mL |
| PP10759 (antibody, human IgG4 S228P, kappa, V domains shown, expressed in HEK293; also called chimeric antibody PP10759; chimeric parental antibody) VH: EVQLVESGGGLVQPGGSLKLSCVASGFTFSTYGMSWVRQTPDKRLELVAIINHNGGSTFYPDSVKGRFTVSRDNAKNTLHLQMSSLKSEDTAMYYCARDPRHDGYFFDYWGQGTTLTVSS VL: DIQMTQSSPSFSVSLGDRVTITCKASEDIYDRLAWYQQKPGNAPRLLISGATSLETGIPSRFSGSRSGKDYTLDINSLQTEDAATYYCQQYWSVPWTFGGGTKLEIKR | no binding | 99.5% | 0.0872 OD450 | 95.2% | 0.0888 OD450 | 1100 pM | 0.00053 s⁻¹ | 480000 M⁻¹ s⁻¹ | 5.83 ng/mL |
